According to the nanobody polyreactivity screen of Harvey et al. (2022):

Experiment: yeast display, Sf9 membrane polyspecificity reagent, FACS + sequencing; frameworks hold sequencing errors
In short: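 Galactose-induced (36–48 hours) yeast carrying a synthetic nanobody display library were exposed to 10% biotinylated, detergent-solubilized Sf9 membrane reagent at 4 °C for 1 hour. FACS followed streptavidin microbead enrichment, using low and high (top ~1%) gates for expression (anti-HA) and reagent binding (streptavidin). Colony PCR, MiSeq 2 × 250 sequencing and CDR-length filtering followed. Labels for polyreactivity reflect the gate of origin.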

Row | Sequence | polyreactivity (PSR sort gate)
1 | QVQLVESGGGLVQAGGSLRLSCAASGFTFAVNVMGWYIHAPGKEREFDAAISWTGGSTDYADSVKGRFTISLDNAKNTVYLQMNSLKPEDTAVYYCAADYNLRLQPFRKLVGPAGGYWGQGTQLTVSS | low polyreactivity
2 | QVQLVESGGGLVQAGGSLRLSCAASGFTFAVYAMGWYRQAPGKERELVAAISRSGTRTYYADSVKGRFTISRDNAKNTVYLQMNSMKPEDTAVYYCAADKYRHGYDYWGQGTQVTVSS | low polyreactivity
3 | QVQLVESGGGLVQAGGSLRLSCAASGFTFAWNAMGWYRQAPGKERELVATIDVSGGSTYYADSVKGRFTISRDNAKNTVYLQMNILKPEDTAVYYCAADELPEGGYDYWGHGTQVTVSS | low polyreactivity
4 | QVQLVESGGGLVQAGGSLRLSCAASGFTFAYYAMGWYRQAPGKERELVAAISYSGGSTYYADSVKGRFTISRDNAKNTVYLQMNSLKPVDTAVYYCAAEAGRRYNWGYDYWGQGTQVTVSS | high polyreactivity
5 | QVQLVESGGGLVQAGGSLRLSCAASGFTFAYYAMGWYRQAPGKERELVAAITRGGGRTFYADSVKGRFTISRDNAKNTVYLQMNSLKPEDTAVYYCAAVKDTTNSRGYGYWGQGTQVTVSS | high polyreactivity
6 | QVQLVESGGGLVQAGGSLRLSCAASGFTFAYYAMGWYRQAPGKERELVADISSGGSTDYADSVKGRFTISRDNAKNTVYLQMNSLKPEDTAVYYCNAVVVRLWYDYDYWGQGTQVTVSS | low polyreactivity
7 | QVQLVESGGGLVQAGGSLRLSCAASGFTFAYYAMGWYRQAPGKERELVASISYNGGITNYADSVKGRFTISRDNAKNTVYLQMNSLKPEDTSVYYCNAVPHYYWRFDYWGQGTQVTVSS | low polyreactivity
8 | QVQLVESGGGLVQAGGSLRLSCAASGFTFAYYAMGWYRQAPGKERELVATITSGGRTYYADSVKGRFTISRDNAKNTVYLQMNSLKPEDTAVYYCAAAGKGRYHFRSTMDYWGQGTQVTVSS | high polyreactivity
9 | QVQLVESGGGLVQAGGSLRLSCAASGFTFAYYTMGWYRQAPGKERELVAAISWSGSSTYYADSVKGRFTISRDNAKNTVYLQMNSLKPEDTAVYYCAAKGWYVQHFKRGLYNYWGQGTQVTVSS | high polyreactivity
10 | QVQLVESGGGLVQAGGSLRLSCAASGFTFDANAIGWYRQAPGKERELVAAISSSGGSTYYADSVKGRFTISRDNAKNTVYLQMNSLKPEDTAVYYCAADLAPGRHDYWGQGTQVTVSS | high polyreactivity
11 | QVQLVESGGGLVQAGGSLRLSCAASGFTFDANAMGWYRQAPGKERELVAAINWSGGSTYYADSVKGRFTISRDNAKYTVYLQMNSLKPEDTAVYYCAAELWGLFDYWGQGTQVTVSS | low polyreactivity
12 | QVQLVESGGGLVQAGGSLRLSCAASGFTFDAYDMGWYRQAPGKERELVASITGGGSTYYADSVKGRFTISRDNAKNTVYLQMNSLKPEDTAVYYCAADLYFEGYNRYYHISGFDYWGQGTQVTVSS | low polyreactivity
13 | QVQLVESGGGLVQAGGSLRLSCAASGFTFDDYTMGWYRPAPGKEREFVAAISSSGGSTYYADSVKGRFTISRDNAKNTVYLQMNSLKPVDTAVYYCAADARYYDYYEYDYWGQGTQVTVSS | high polyreactivity
14 | QVQLVESGGGLVQAGGSLRLSCAASGFTFDFYAMGWYRQAPGKERELVAAISRRGGRTSYADSVKGRFTISRDNAKNTVYLQMNSLKPEDTAVYYCAAASLGGDGLVAYYYWGQGTQVTVSS | high polyreactivity
15 | QVQLVESGGGLVQAGGSLRLSCAASGFTFDFYVMGWYRQAPGKERELVAAISWDGGTTYYADSVKGRFTISRDNAKNTVYLQMNSLKPEDTAVYYCAADDWVYVPTGAWYLYEYWGQGTQVTVSS | high polyreactivity
16 | QVQLVESGGGLVQAGGSLRLSCAASGFTFDGYAMGWDRQAPGKERELVAAISGGGSTYYADSVKGRFTISRDNAKNTVYLQMNSLKPEDTAVYYCAVVYRYRTRSRSYFLPFDYWGQGTQVTVSS | high polyreactivity
17 | QVQLVESGGGLVQAGGSLRLSCAASGFTFDGYGMGWYRHAPGKERELVAVITSGGSTKYADSVKGRFTISRDNAKNTVYLQMNSLKPEDTAVYYCNVVGGRPNPYYDEMDYWGQGPQVTVSS | low polyreactivity
18 | QVQLVESGGGLVQAGGSLRLSCAASGFTFDINTMGWYRQAPGKERELVAAITYSGGSTYYADSVKGRFTISRDKAKNTVYLQMNSLKPEDTAVYYCATTWYFVASWYVAIYDYWGQGTQVTVSS | low polyreactivity
19 | QVQLVESGGGLVQAGGSLRLSCAASGFTFDIYAMGWYRQAPGKEWELVAAITSGGITNYADSVKGRFTISRDNAKNTVYLQMNSLKPEDTAVYYCAADEYLGFYVSHTDWTKYDYWGQGTQVTVSS | low polyreactivity
20 | QVQLVESGGGLVQAGGSLRLSCAASGFTFDKNAMGWYRQAPGKERELVAAINIGSTYYADSVKGRFTISRDNAKNTVYLQMNSLKPEDTAVYYCAKEVPSGYWVNYYYWGQGTQVTVSS | low polyreactivity
21 | QVQLVESGGGLVQAGGSLRLSCAASGFTFDKNAMGWYRQAPGKERELVAAITKSGGSTYYADSVKGRFTISRDNAKNTVYLQMNSLKPEETAVYYCNAPPWSRYYYDLLRHDYWGQGTQVTVSS | low polyreactivity
22 | QVQLVESGGGLVQAGGSLRLSCAASGFTFDLYAKGWYRQAPGKERELVAVITRGGSTYYADSVKGRFTISRDNAKNTVYLQMNSLKPEDTAVYYCAKYSIIDWWGGEDYWGQGTQVTVSS | high polyreactivity

Row | Sequence | polyreactivity (PSR sort gate)
23 | QVQLVESGGGLVQAGGSLRLSCAASGFTFDRNAMGWYRQAPGKERGLVAAISSSGGRTYYADSVKGRFTISRDNAKNTVYLQMNSLKPEDTAVYYCAAVFFSRPSAYGSRYYWGQGTQVTVSS | high polyreactivity
24 | QVQLVESGGGLVQAGGSLRLSCAASGFTFDRNAMGWYRQATWKERELVAAITWTGGSTYYADSVKGRFTISRDNAKNTVYLQMNSLKPEDTAVYYCAATLPYSRGWFYYWGQGTQVTVSS | high polyreactivity
25 | QVQLVESGGGLVQAGGSLRLSCAASGFTFDRYAMGWYRQAPGKERELVAAISRSGASTYYADSVKGRFTISRDNAKNTVYLQMNSLKPDDTAVYYCAAKQRTKGDYWGQGTQVTVSS | high polyreactivity
26 | QVQLVESGGGLVQAGGSLRLSCAASGFTFDRYTMGWYRQAPGKEWELVAVIRRGGSTYYADSVKGRFTISRDNAKNTVYLQMNSLKPEDTAVYYCNALSALAVEDGYWGQGTQVTVSS | low polyreactivity
27 | QVQLVESGGGLVQAGGSLRLSCAASGFTFDSNAMGWYRQAPGKERELGAAISKRGGSTYYADSVKGRFTISRDNAKNTVYLQMNSLKPEDTAVYYCAADNYNSGGTRHMYYWGQGTQVTVSS | high polyreactivity
28 | QVQLVESGGGLVQAGGSLRLSCAASGFTFDVYAMGWYRQAPGKERELVATITWSGGSTTYADSVKGRFTISRDNAKNTVYLQMNSLKPEDTAVYYCAADRSVQVTFDYWGQGTQVTVSS | low polyreactivity
29 | QVQLVESGGGLVQAGGSLRLSCAASGFTFDWYAMGWSRQAPGKERELVAAISSSGTSRYYADSVKGRFTISRDNAKNTVYLQMNSLKPEDTAVYYCAARWYYVTPLRRYGYWGQGTQVTVSS | high polyreactivity
30 | QVQLVESGGGLVQAGGSLRLSCAASGFTFDYYALGWYRQAPGKERELVAAISRGGSTYYADSVKGRFTISRDNGKNTFYLQMNSLKPEDTAVYYCAVSAGKRRLDYWGQGTQVTVSS | high polyreactivity
31 | QVQLVESGGGLVQAGGSLRLSCAASGFTFDYYAMGWYRQAPGKERELVAAISVSDSSTYYADSVKGRFTISRDNAKNTGDLQMNSLKPEDTAVYYCAAEYYVGFTYRYEYWGQGTQVTVSS | low polyreactivity
32 | QVQLVESGGGLVQAGGSLRLSCAASGFTFDYYAMGWYRQAPGKERELVASITFIGGNTNYADSVKGRFTISRDNAKNTVYLQMNSLKPEDTAVYYCAADFPWDYRYWFEYWGQGTQVTVSS | low polyreactivity
33 | QVQLVESGGGLVQAGGSLRLSCAASGFTFEENAMGWYRQAPGKERELVAAINWSGGNTYYADSVKGRFTISRDNAKNTVYLQMNSLKPEDTAVYYCAADSPRYYYWVGPYYGYDYWGQGTQVTVSS | high polyreactivity
34 | QVQLVESGGGLVQAGGSLRLSCAASGFTFEGNAMGWYRQAPGKERELVAAISSNGGRTYYADSVKGRFTISRDNAKNTVYLQMNSLKPEDTAVYYCNALRAYSGPDYDYYHGRRYDYWGQGTQVTVSS | low polyreactivity
35 | QVQLVESGGGLVQAGGSLRLSCAASGFTFEGYAMGWYRQAPGKERELVASISSGGGTNYADSVKGRFTISRDNAKNTVYLQMNSLKPEDTAVYYCAARAYPYFWTGQKLSRFGYWGQGTQVTVSS | high polyreactivity
36 | QVQLVESGGGLVQAGGSLRLSCAASGFTFEIYTMGWYRQAPGKERELVAAISTGGNTKYADSVKGRFTISRDNAKNTVYLQMNSLKPEDTAVYYCAKGRKPGYYYWGQGTQVTVSS | high polyreactivity
37 | QVQLVESGGGLVQAGGSLRLSCAASGFTFELYDMGWYRQAPGKERELVARITRSGGSTNYADSVKGRFTISRDNAKNTVYLQMNSLKPEDTAVYYCAAKSPLFGLTSYPGPDDSWGQGTQVTVSS | low polyreactivity
38 | QVQLVESGGGLVQAGGSLRLSCAASGFTFERYSMGWYRQAAGKEMELVASISRRSGRTSYADSVKGRFTISRDNAKNTVYLQMKSLIPEDTAVYYCAVDDAYPDGYDYWGQGTQVTVSS | high polyreactivity
39 | QVQLVESGGGLVQAGGSLRLSCAASGFTFETNAMGWYRQAHGKERELVATITGGGSTNYADSVKGRFTISRDNAKNTVYLQMNSLKPEDTAVYYCNAVHEASYAGVDYWGQGTQVTVSS | low polyreactivity
40 | QVQLVESGGGLVQAGGSLRLSCAASGFTFFENAMGWYRQAPGKERELVAAIRKSGDRTYYADSVKGRFTISRDNAKNTVYLQMNSLKPEDTAVYYCAAPLSLRSSFGSWGQGTQVTVSS | high polyreactivity
41 | QVQLVESGGGLVQAGGSLRLSCAASGFTFFGYAMGWYRQEPGKERELVAAISTIDGDTYYADSVKGRFTISRDNAKNSFYFLMNSLKPEDTAVYYCAADDYIDGDDYWGQGTQVTVSS | low polyreactivity
42 | QVQLVESGGGLVQAGGSLRLSCAASGFTFFHYAMGWYIQAPGKERELVAAITRSGSSTYYADSVKGRFTISRDNAKNTVYLQMNSLKPEDTAVYYCAADYISRGGYTIEDYWGQGTQVTVSS | low polyreactivity
43 | QVQLVESGGGLVQAGGSLRLSCAASGFTFFIYAMGWYRQAPGKERELVAAISLSGTSTYYADSVKGRFTISRDNAKNSVYLQMNSLKPEDTAVYYCAKDGAYWTYYSGYDYWGQVTQVTVSS | low polyreactivity
